The results in this text go back to patent publication US10501734B2, “Compositions and methods of use thereof for making polypeptides with many instances of nonstandard amino acids” (Yale University, priority 2014, dated 2019).

Residue numbers refer to the chain shown, from its start. Names may count otherwise. Where two headings read alike, the source gives them in different places.

A short description of series [1]: ATP-PPi exchange assay (amino acid activation). The series is classed as biochemical. How it is done:
A 25 μl ATP-PPi exchange reaction contained the following components: 100 mM HEPES-KOH (pH 7.5), 30 mM KCl, 10 mM MgCl2, 2 mM DTT, 2 mM KF, 2 mM NaPPi, 5 mM ATP, […], 2 μCi/μl of […] (PerkinElmer) and varied concentrations of amino acids (0.25, 0.5, 1.25, 2.5, 5, 10, and 20 mM, respectively). The reactions were incubated at 37° C. Time points were taken at 2 minutes, 5 minutes and 10 minutes by plotting 1 μl aliquots from the reaction immediately to the PEI-cellulose plates (Merck). For each reaction, 1 μl of blank reaction mixture containing no enzymes was set as background. The reaction mixtures were separated on the plates in 1 M urea and 1 M monopotassium phosphate. The plates were then scanned in a Molecular Dynamics Storm 860 phosphorimager (Amersham Biosciences). The ratio of ATP to PPi was determined to monitor reaction progress. The kinetic constants were derived from plotting initial velocity of a series of reactions that contained varied concentrations of amino acids. The data were analyzed by GraFit 5.0 (Erithacus Software).

For series [2], the system named is GFP(3TAG). The series is classed as cell-based, E. coli. The conditions noted are these: chromosomally integrated AARS; pAcF. How it is done:
(§1) Liquid cell cultures of strains harboring chromosomally integrated OTSs and GFP reporter plasmids were inoculated from frozen stocks and grown to confluence overnight. Cultures were then inoculated at 1:20 dilution in LBmin media supplemented with 30 μg/ml kanamycin. Strains were inoculated by addition of 1:20 confluent cell culture (grown overnight) and allowed to grow at 34° C. to an OD600 of 0.5-0.8 in a shaking plate incubator at 650 r.p.m (˜3 h). AARS expression was then induced by the addition of 0.2% arabinose, GFP expression was induced by the addition of 60 ng/ul anhydrotetracycline, and the appropriate nsAA was added to a concentration of 1 mM. Cells were incubated at 34° C. for an additional 16 h. Liquid cell cultures of strains harboring plasmid-based OTSs and GFP or ELP-GFP reporter plasmids were inoculated from frozen stocks and grown to confluence overnight. Cultures were then inoculated at 1:20 dilution in 2×YT media supplemented with 30 μg/ml kanamycin and 20 μg/ml chloramphenicol. […] Cells were allowed to grow at 34° C. to an OD600 of 0.5-0.8 in a shaking plate incubator at 650 r.p.m (˜3 h), reporter protein expression was then induced by the addition of 60 ng/ul anhydrotetracycline, and cells were incubated at 34° C. for an additional 16 h.
(§2) For 384 well plate-based assays, fluorescence and OD600 were directly measured following expression. For 96 well plate-based assays, cells were centrifuged at 4,000 g for 4 min. Supernatant medium was removed and cells were resuspended in PBS. This process was repeated twice with PBS. GFP fluorescence was measured on a Biotek spectrophotometric plate reader using excitation and emission wavelengths of 395 and 509 nm, respectively). Fluorescence signals were normalized by dividing the fluorescence counts by the OD600 reading. The nsAAs used in this study were purchased from Sigma-Aldrich (St. Louis, Mo.), Chemlmpex (Wood Dale, Ill.), and Bachem (Torrance, Calif.). Solutions of nsAAs (50 mM) were made in water or 50 mM NaOH; these stock solutions were diluted 50- or 100-fold (to 1 mM final concentration) into medium used for bacterial growth.

In a further series the test system is tRNA. Description: Aminoacylation assay (tRNA charging). The series is classed as biochemical. How it is done:
Template plasmid containing tRNA gene was purified with the plasmid maxi kit (Qiagen), and 100 μg of plasmid was digested with BstNI (New England Biolabs). The BstNI digested template DNA was purified by phenol chloroform extraction, followed by ethanol precipitation and resolved in double distilled water. A His-tagged T7 RNA polymerase was purified over column of Ni-NTA resin according to manufacturer's instructions (Qiagen). The transcription reaction [40 mM Tris (pH 8); 4 mM each of UTP, CTP, GTP, and ATP at pH 7.0; 22 mM MgCl2; 2 mM spermidine; 10 mM DTT; 6 μg pyrophosphatase (Roche Applied Science); 60 μg/mL BstNI digested DNA template, approximately 0.2 mg/ml T7 RNA polymerase] was performed in 10 ml reaction volumes for overnight at 37° C. The tRNA was purified on 12% denaturing polyacrylamide gel containing 8 M urea and TBE buffer (90 mM Tris, 90 mM boric acid, 2 mM EDTA). UV shadowing illuminates the pure tRNA band, which is excised and extracted three times with 1M sodium acetate pH 5.3 at 4° C. The tRNA extractions were then ethanol precipitated, dissolved in RNase-free distilled water, pooled, and finally desalted using a Biospin 30 column (BioRad). The ratio of aminoacylated tRNA to total tRNA was determined to monitor reaction progress.
The tRNA was refolded by heating to 100° C. for 5 min and slow cooling to room temperature. At 65° C., MgC12, was added to a final concentration of 10 mM to aid folding. A His-tagged CCA adding enzyme was purified over column of Ni-NTA resin according to manufacturer's instructions (Qiagen). 16 μM folded tRNA in 50 mM Tris (pH 8.0), 20 mM MgCl2, 5 mM DTT and 50 μM NaPPi was incubated at room temperature for 1 hour with approximately 0.2 mg/ml CCA-adding enzyme and 1.6 μCi/μl of [α-32P]-labeled ATP (PerkinElmer). The sample was phenol/chloroform extracted and then passed over a Bio-spin 30 column (Bio-Rad) to remove excess ATP.
A 20 μl aminoacylation reaction contained the following components: 50 mM HEPES-KOH (pH 7.2), 25 mM KCl, 10 mM MgCl2, 5 mM DTT, 10 mM ATP, 25 μg/ml pyrophosphatase (Roche Applied Science), 2 mM amino acids. All plateau tRNA aminoacylation levels were determined at 37° C. according to the reactions conditions described above with 500 nM enzyme, 5 μM unlabeled tRNA plus 100 nM 32P-labeled tRNA. Time points were taken at 5 minutes, 20 minutes and 60 minutes by removing 2 μl aliquots from the reaction and immediately quenching the reaction into an ice-cold 3 μl quench solution [0.66 μg/μl nuclease P1 (Sigma) in 100 mM sodium citrate (pH 5.0)]. For each reaction, 2 μl of blank reaction mixture containing no enzymes was added to the quench solution as the start time point. The nuclease P1 mixture was then incubated at room temperature for 30 min and 1 μl aliquots were spotted on PEI-cellulose plates (Merck) and developed in running buffer containing 5% acetic acid and 100 mM ammonium acetate. Radioactive spots for AMP and AA-AMP (representing free tRNA and aminoacyl-tRNA, respectively) were separated and then visualized and quantified by phosphor imaging by a Molecular Dynamics Storm 860 phosphorimager (Amersham Biosciences). The ratio of aminoacylated tRNA to total tRNA was determined to monitor reaction progress.

Series [3] deals with GFP(3TAG). The series can be described thus: nsAA library screening, GFP(3TAG) fluorescence in 384 well plates. Type of series: cell-based, E. coli. The conditions noted are these: GFP(3TAG) production in the presence of pAcF, pAzF and 236 other nsAAs. How it is done:
as §1
as §2, with “growth. […]” for “growth.”

The mark [4] stands for this setting: nsAA pAcF, relative to progenitor pAcFRS.
Setting [5] is: nsAA pAzF, relative to progenitor pAcFRS.
Where [6] appears, read: amino acid Tyrosine, relative to pAcFRS.

B1: pAcFRS.1: pAcFRS variant A167D, SEQ ID NO: 2 (protein)
chain: MDEFEMIKRNTSEIISEEELREVLKKDEKSALIGFEPSGKIHLGHYLQIKKMIDLQNAGFDIIILLADLHAYLNQKGELDEIRKIGDYNKKVFEAMGLKAKYVYGSEFQLDKDYTLNVYRLALKTTLKRARRSMELIAREDENPKVAEVIYPIMQVNGCHYRGVDVDVGGMEQRKIHMLARELLPKKVVCIHNPVLTGLDGEGKMSSSKGNFIAVDDSPEEIRAKIKKAYCPAGVVEGNPIMEIAKYFLEYPLTIKRPEKFGGDLTVNSYEELESLFKNKELHPMRLKNAVAEELIKILEPIRKRL
As to B1, the Km in series [1] (nsAA pAcF) turned out to be 2.16 ± 0.72 mM; in series [1] (nsAA pAzF), 1.74 ± 0.39 mM; in the series on tRNA (nsAA pAcF) it was 36 ± 7 µM; in the series with tRNA (nsAA pAzF) it was 31 ± 9 µM. Moreover, the kcat is 6.84 ± 0.64 ×10^−2 s^−1 in series [1] (nsAA pAcF), 3.50 ± 0.20 ×10^−2 s^−1 in series [1] (nsAA pAzF), 1.21 ± 0.24 ×10^−3 s^−1 with tRNA (nsAA pAcF) and 0.65 ± 0.20 ×10^−3 s^−1 in the series on tRNA (nsAA pAzF). In addition, the Fold change amounted to 4.64 in series [1] (setting [4]), 1.37 in series [1] (setting [5]), 4.60 with tRNA (setting [4]) and 3.38 in the series with tRNA (setting [5]). Also, in the series with GFP(3TAG) [2], the “higher GFP(3TAG) production compared with the progenitor enzyme” value is given as roughly 8 fold. In addition, in the series with GFP(3TAG) [3], the “nsAA specificity (polyspecificity)” value is recorded as “polyspecifity for at least pAcF, pAzF, StyA, 4IF, 4BrF, 4ClF, 4MeF, 4Cf3F, MeY, 4NO2F, 4BuF, BuY, 2NaA, PheF”.

B2: pAcFRS.t1: pAcFRS variant R257G, SEQ ID NO: 3 (protein)
chain: B1 chain with D167A, R257G
Turning to B2, the Km in series [1] (nsAA pAcF) was found to be 9.17 ± 3.67 mM; in the series with tRNA (nsAA pAcF), 17 ± 3 µM. For the same molecule, the figures for the kcat (in series [1] (nsAA pAcF); with tRNA (nsAA pAcF)) were 6.92 ± 1.27 ×10^−2 s^−1 and 0.22 ± 0.02 ×10^−3 s^−1, respectively. For the same molecule, the Fold change amounted to 1.11 in series [1] (setting [4]) and 1.77 with tRNA (setting [4]). The “higher GFP(3TAG) production compared with the progenitor enzyme” value in the series on GFP(3TAG) [2] is recorded as roughly 1.5 fold. In addition, in the series on GFP(3TAG) [3], the “nsAA specificity (polyspecificity)” value is listed as “polyspecifity for at least pAc.F, pAzF, StyA”.

B3: WTmjYRS: wild-type M. jannaschii TyrRS, the parent AARS of pAcFRS (protein, UniProt Q57834 1-306, looked up)
Tyrosine--tRNA ligase: B1 chain with L32Y, G158D, C159I, R162L, D167A, R286D
With B3, the kcat in series [1] (amino acid Tyrosine) is 52.2 ± 4.1 ×10^−2 s^−1; in the series on tRNA (amino acid Tyrosine) it was 130 ± 22 ×10^−3 s^−1. Besides, the Km was 0.076 ± 0.03 mM in series [1] (amino acid Tyrosine, read-out: Km, nsAA) and 23 ± 3 µM in the series with tRNA (amino acid Tyrosine). Besides, the Fold change in series [1] (setting [6]) was 1007; with tRNA (setting [6]), 774.

B4: pAcFRS.t2: pAcFRS variant R257C, F261E, SEQ ID NO: 4 (protein)
chain: B1 chain with D167A, R257C, F261E
For B4, the values for the Km (in series [1] (nsAA pAcF); in the series with tRNA (nsAA pAcF)) were 8.59 ± 3.23 mM and 29 ± 3 µM, respectively. The kcat is reported as 6.67 ± 1.27 ×10^−2 s^−1 in series [1] (nsAA pAcF) and 0.27 ± 0.07 ×10^−3 s^−1 in the series with tRNA (nsAA pAcF). Besides, the Fold change in series [1] (setting [4]) is recorded as 1.14; with tRNA (setting [4]), 1.27. Also, the “higher GFP(3TAG) production compared with the progenitor enzyme” value in the series with GFP(3TAG) [2] is listed as roughly 1.5 fold. For the same molecule, the “nsAA specificity (polyspecificity)” value with GFP(3TAG) [3] was “polyspecifity for at least pAcF, pAzF, StyA”.

B5: pAcFRS.1.t2: pAcFRS variant A167D, R257C, F261E, SEQ ID NO: 6 (protein)
chain: B1 chain with R257C, F261E
As for B5, the Km is 1.69 ± 0.44 mM in series [1] (nsAA pAcF) and 27 ± 3 µM in the series on tRNA (nsAA pAcF). Besides, the kcat in series [1] (nsAA pAcF) is on record as 6.30 ± 0.46 ×10^−2 s^−1; in the series with tRNA (nsAA pAcF), 1.03 ± 0.06 ×10^−3 s^−1. Besides, the Fold change in series [1] (setting [4]) came to 5.47; with tRNA (setting [4]), 5.22. The “higher GFP(3TAG) production compared with the progenitor enzyme” value with GFP(3TAG) [2] is recorded as roughly 15 fold. Further, the “nsAA specificity (polyspecificity)” value with GFP(3TAG) [3] is reported as “polyspecifity for at least pAcF, pAzF, StyA, 4IF, 4BrF, 4ClF, 4MeF, 4Cf3F, MeY, 4NO2F, 4BuF, BuY, 2NaA, PheF”.

In general, Km refers to the concentration of substrate that gives half-maximal velocity.
